Data from PMC4912631, “Structure of the exportin Xpo4 in complex with RanGTP and the hypusine-containing translation factor eIF5A” (Nature Communications, 2016).

B1: eIF5A, full-length, hypusinated (natural protein)
chain: not shown
modifications: hypusine (N-ɛ-(4-amino-2-hydroxybutyl)-lysine) at 50
notes: eIF5A, mammalian; lysine 50 in human numbering carries the hypusine; In the nuclear export assay this protein carried an Alexa568 label; also called eIF5A(Hpu); hypusinated eIF5A; source: E. coli NEB Express, purified; hypusinated in vitro by recombinant deoxyhypusine synthase and deoxyhypusine hydroxylase; eluted from anti-ZZ matrix by bdSENP1; cation exchange; not shown: His14, N-terminal, …
B2: eIF5A truncated (14 N-terminal residues deleted), hypusinated (domain or fragment)
chain: not shown
modifications: hypusine (N-ɛ-(4-amino-2-hydroxybutyl)-lysine) at 50
B3: Xpo4 wild type (natural protein)
chain: not shown
B4: Xpo4 S631A (natural protein)
chain: not shown
B5: Xpo4 E537Q (natural protein)
chain: not shown
B6: Xpo4 D470N (natural protein)
chain: not shown

How the values were obtained:
Conditions in all cases: both partners purified
Xpo4 wild type [1] = molecular target: B3; experiment: pull-down; export complexes formed with Xpo4, eIF5A (full-length or truncated) and ZZ-bdNEDD8-tagged RanGTP; immobilised via tagged Ran; eluted by bdNEDP1 protease; SDS-PAGE, Coomassie
Xpo4 wild type [2] = molecular target: B3; experiment: SEC; complexes of Xpo4 variants, RanGTP and a 1.3-molar excess of hypusine-containing eIF5A, retrieved on anti-ZZ beads via tagged RanGTP, eluted by bdSENP1, then Superdex 200 16/60 in 15 mM Tris/HCl pH 7.7, 18 mM NaCl, 2 mM Mg(OAc)2, 2 mM DTT; peak fractions on SDS-PAGE
Xpo4 ΔLoopN&C = molecular target: T1, Xpo4 ΔLoopN&C ( (mammalian), UniProt Q9ESJ0 1-1151, Δ241–260 | Δ931–948); experiment: as above
T1 construct: Xpo4 (exportin 4), mammalian, with loops 241-260 and 931-948 deleted; 1,113 residues printed; Crystallised form; 1,052 of 1,113 residues are modelled in PDB 5DLQ; also called ΔLoopN&C Xpo4 variant; Xpo4 loop deletion mutant; source: E. coli Top10 F', purified (Ni(II) chelate, bdSENP1 elution, Superdex 200, Mono Q); selenomethionine form from BL21; not shown: His14, N-terminal, cleaved; bdSUMO, …

ZZ-bdNEDD8-tagged RanGTP = ZZ-bdNEDD8-tagged RanGTP ( (mammalian), UniProt P62826 5-180, Q69L); experiment: pull-down; 1 μM Xpo4 wild type or mutants, 0.75 μM ZZ-bdNEDD8-tagged RanGTP, 1.25 μM hypusinated eIF5A, 100 mM NaCl buffer; retrieved via tagged Ran; eluted by bdNEDP1 protease; SDS-PAGE, Coomassie
[3] = molecular target: RanQ69L (aa 5–180), GTP-bound, untagged ( (mammalian), UniProt P62826 5-180, Q69L); experiment: SEC; complexes of Xpo4 variants, RanGTP and a 1.3-molar excess of hypusine-containing eIF5A, retrieved on anti-ZZ beads via tagged RanGTP, eluted by bdSENP1, then Superdex 200 16/60 in 15 mM Tris/HCl pH 7.7, 18 mM NaCl, 2 mM Mg(OAc)2, 2 mM DTT; peak fractions on SDS-PAGE

Sequence of Xpo4 wild type (Q9ESJ0 whole entry, the tested form may be a part): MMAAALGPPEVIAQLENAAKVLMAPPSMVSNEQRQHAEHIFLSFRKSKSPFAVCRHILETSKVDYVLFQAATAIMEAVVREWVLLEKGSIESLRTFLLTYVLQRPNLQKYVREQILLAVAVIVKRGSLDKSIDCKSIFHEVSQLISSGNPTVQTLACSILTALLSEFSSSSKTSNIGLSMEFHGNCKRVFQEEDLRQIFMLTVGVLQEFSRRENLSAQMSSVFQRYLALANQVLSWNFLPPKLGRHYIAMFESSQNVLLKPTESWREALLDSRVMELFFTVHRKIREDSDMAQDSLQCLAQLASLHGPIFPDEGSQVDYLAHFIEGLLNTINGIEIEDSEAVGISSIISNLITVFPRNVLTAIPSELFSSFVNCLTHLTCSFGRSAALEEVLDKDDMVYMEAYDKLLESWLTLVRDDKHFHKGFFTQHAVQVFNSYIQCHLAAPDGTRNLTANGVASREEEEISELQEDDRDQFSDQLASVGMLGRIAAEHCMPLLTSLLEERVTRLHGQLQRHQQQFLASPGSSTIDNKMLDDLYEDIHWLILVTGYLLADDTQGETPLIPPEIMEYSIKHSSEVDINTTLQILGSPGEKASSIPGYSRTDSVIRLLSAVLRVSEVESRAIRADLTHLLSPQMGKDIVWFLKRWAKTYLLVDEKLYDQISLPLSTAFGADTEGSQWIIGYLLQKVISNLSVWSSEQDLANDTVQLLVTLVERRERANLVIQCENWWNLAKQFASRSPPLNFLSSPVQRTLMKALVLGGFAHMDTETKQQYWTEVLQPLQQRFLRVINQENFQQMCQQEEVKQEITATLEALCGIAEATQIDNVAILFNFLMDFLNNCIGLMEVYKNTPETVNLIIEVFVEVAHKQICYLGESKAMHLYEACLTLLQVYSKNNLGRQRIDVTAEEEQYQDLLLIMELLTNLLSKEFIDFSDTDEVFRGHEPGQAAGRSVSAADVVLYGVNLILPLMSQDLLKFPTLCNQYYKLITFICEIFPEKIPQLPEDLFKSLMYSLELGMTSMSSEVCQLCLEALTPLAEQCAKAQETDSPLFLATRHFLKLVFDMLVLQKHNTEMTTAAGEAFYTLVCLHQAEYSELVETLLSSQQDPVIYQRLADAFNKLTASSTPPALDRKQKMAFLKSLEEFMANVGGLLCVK
T1 sequence (Q9ESJ0 other isoform, or with tags, fused parts or gaps Δ241–260 | Δ931–948 | Δ241–260 | Δ931–948 | mutant): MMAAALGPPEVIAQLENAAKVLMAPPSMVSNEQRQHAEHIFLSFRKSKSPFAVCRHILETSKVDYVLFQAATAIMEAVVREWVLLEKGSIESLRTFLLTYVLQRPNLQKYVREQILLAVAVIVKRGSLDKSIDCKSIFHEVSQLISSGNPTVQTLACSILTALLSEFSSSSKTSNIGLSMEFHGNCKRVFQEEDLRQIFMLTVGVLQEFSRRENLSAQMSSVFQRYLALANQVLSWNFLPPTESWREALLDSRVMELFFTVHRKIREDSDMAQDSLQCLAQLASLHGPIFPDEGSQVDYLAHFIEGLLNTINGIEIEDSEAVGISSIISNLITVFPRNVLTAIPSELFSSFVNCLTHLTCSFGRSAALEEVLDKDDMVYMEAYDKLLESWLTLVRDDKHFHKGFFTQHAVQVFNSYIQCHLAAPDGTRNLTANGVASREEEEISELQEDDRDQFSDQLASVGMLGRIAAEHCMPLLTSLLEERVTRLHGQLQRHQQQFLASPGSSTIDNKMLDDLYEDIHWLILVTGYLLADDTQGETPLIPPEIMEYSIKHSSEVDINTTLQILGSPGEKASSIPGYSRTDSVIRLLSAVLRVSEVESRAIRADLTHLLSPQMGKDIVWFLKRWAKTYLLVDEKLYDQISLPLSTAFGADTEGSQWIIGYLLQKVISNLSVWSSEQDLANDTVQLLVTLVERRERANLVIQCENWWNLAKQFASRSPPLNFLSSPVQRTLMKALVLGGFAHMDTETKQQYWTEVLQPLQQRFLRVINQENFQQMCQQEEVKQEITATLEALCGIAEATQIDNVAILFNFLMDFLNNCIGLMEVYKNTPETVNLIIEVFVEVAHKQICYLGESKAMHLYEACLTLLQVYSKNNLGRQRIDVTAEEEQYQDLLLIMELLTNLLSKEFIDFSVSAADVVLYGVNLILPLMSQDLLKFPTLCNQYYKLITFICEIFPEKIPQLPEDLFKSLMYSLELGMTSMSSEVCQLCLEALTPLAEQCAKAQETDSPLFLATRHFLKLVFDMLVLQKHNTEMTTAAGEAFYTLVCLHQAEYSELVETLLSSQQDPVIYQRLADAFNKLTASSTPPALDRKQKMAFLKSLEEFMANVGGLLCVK

| Binder | binding result (ZZ-bdNEDD8-tagged RanGTP) | other results |
| --- | --- | --- |
| B1 |  | binding result (Xpo4 wild type [1]): binds |
| B2 |  | binding result (Xpo4 wild type [2]): binds; binding result (Xpo4 ΔLoopN&C): binds |
| B3 | binds | binding result [3]: binds |
| B4 | binds |  |
| B5 | binds |  |
| B6 | binds |  |
